Experiment [1] addresses T1, vascular endothelial growth factor (VEGF)-A121 (human, UniProt P15692-9 27-147).
T1 construct: mature; Purchased in mature form, not glycosylated
T1 sequence (looked up): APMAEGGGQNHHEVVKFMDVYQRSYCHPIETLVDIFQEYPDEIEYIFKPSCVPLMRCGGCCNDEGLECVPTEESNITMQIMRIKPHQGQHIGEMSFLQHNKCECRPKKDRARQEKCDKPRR
Kind of experiment: ELISA, peptide coated. As to the method: (§1) (A) The location of laminin-derived peptides in the LG domain of laminin α3, α4, and α5 chains. (B-F) Affinity of heparin and GFs against chemically synthesized peptides derived from the LG domain of laminin α3, α4, and α5 chains. ELISA plates were coated with 10 μg/mL laminin peptide and further incubated with (B) biotinylated heparin, (C) VEGF-A165 and VEGF-A121, (D) PlGF-2 and PlGF-1, (E) PDGF-BB, or (F) FGF-2. Concentrations were 1 μg/mL for GFs and 10 μg/mL for heparin. Bound heparin was detected with streptavidin, and bound GFs with a specific antibody for each GF (n=4, mean±SEM). Statistical analyses were done using the Mann-Whitney U test by comparing the signals obtained from the laminin peptide- and the BSA-coated wells. *p<0.05, **p<0.01.
(§2) ELISA tests were performed as described above. […] 1 μg/mL of BSA served as non-binding protein control. After blocking with 2% BSA PBS-0.05% Tween 20 (PBS-T) solution, 1 μg/mL of the recombinant human proteins (VEGF-A121, VEGF-A165, PlGF-1, PlGF-2, PDGF-BB or FGF-2) or 10 μg/mL of biotinylated heparin (Sigma-Aldrich) were added. Bound GF was detected with biotinylated antibodies for human VEGF, PlGF, PDGF-BB, or FGF-2 (R&D Systems). The antibodies were detected by streptavidin-HRP (R&D Systems).
In general terms: In an ELISA, binding on a coated surface is turned into a signal by an enzyme label.

Experiment [2] deals with T2, placental growth factor (PlGF)-1 (human, UniProt P49763-2 19-149).
T2 construct: mature; Purchased in mature form
T2 sequence (looked up): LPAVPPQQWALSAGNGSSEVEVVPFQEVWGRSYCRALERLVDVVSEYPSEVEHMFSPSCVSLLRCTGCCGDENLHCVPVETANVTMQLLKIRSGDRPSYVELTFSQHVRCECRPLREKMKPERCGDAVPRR
Kind of experiment: ELISA, peptide coated. As to the method:
as §1, §2

For experiment [3], the target named is T3, placental growth factor (PlGF)-2 (human, UniProt P49763-3 19-170).
T3 construct: mature; Purchased in mature form
T3 sequence (looked up): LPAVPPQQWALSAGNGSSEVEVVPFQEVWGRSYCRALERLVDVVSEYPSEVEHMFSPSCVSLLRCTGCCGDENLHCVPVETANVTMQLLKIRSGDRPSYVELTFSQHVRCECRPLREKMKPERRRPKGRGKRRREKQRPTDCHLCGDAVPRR
Kind of experiment: ELISA, peptide coated, GF 1 µg/mL. The method, then:
as §1, §2

Experiment [4] concerns the target T4, vascular endothelial growth factor (VEGF)-A165 (human, UniProt P15692-4 27-191).
T4 construct: mature; Purchased in mature form, not glycosylated
Description: ELISA, peptide coated, GF 1 µg/mL. As to the method:
as §1, §2

In experiment [5] the target is T5, recombinant human syndecan-1 (human, UniProt P18827 23-254, limits assumed).
T5 construct: Histidine tag of unstated position and length
T5 sequence (looked up): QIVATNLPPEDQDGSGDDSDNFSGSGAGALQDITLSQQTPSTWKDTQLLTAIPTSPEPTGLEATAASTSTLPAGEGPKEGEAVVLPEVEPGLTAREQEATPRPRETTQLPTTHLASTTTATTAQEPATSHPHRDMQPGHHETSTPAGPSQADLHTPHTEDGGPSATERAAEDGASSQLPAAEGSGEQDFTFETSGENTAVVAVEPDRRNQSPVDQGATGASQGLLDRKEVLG
Description: ELISA, peptide coated, syndecan 1 µg/mL, anti-His detection. As to the method: (§3) ELISA tests were performed as described above. In brief, ELISA plates were coated with 1 μg/mL laminin peptide (sequences are described in Table 1, chemically synthesized by Genscript) in PBS for 2 hrs at 37° C. 1 μg/mL of BSA served as non-binding protein control. After blocking with 2% BSA PBS-T solution, 1 μg/mL of the recombinant human syndecan-1, syndecan-2, syndecan-3, syndecan-4 (all syndecan proteins are histidine-tagged; SinoBiological) were added. Bound GF was detected with anti-histidine tag antibody (1:1000 dilution, BioLegend).

Experiment [6] concerns the target T6, recombinant human syndecan-2 (human, UniProt P34741 19-144, limits assumed).
T6 construct: Histidine tag of unstated position and length
The description is as above. The method, then: as §3

Experiment [7] addresses T7, recombinant human syndecan-4 (human, UniProt P31431 19-145, limits assumed).
T7 construct: Histidine tag of unstated position and length
T7 sequence (looked up): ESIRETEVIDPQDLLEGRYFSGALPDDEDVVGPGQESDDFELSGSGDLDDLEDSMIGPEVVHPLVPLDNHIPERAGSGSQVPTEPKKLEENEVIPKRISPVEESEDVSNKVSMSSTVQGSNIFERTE
The experiment is described as above. The method, then:
as §3

Experiment [8] concerns the target T8, platelet-derived growth factor (PDGF)-BB (human, UniProt P01127 82-190).
T8 construct: mature; Purchased in mature form
Description: ELISA; peptide coated (10 µg/mL, legend paragraph 53), GF in solution, BSA-coated wells as control [panel E]. The method, then:
as §1, §2

In experiment [9] the target is T9, fibroblast growth factor (FGF)-2 (human, UniProt P09038 143-288).
T9 construct: mature; Purchased in mature form
T9 sequence (P09038 143-288): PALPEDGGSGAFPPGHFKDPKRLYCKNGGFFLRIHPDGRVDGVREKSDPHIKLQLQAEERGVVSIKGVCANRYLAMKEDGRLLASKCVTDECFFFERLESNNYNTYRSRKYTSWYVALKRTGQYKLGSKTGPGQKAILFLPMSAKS
Description: ELISA; peptide coated (10 µg/mL, legend paragraph 53), 1 µg/mL FGF-2 in solution, BSA-coated wells as control [panel F]. The method, then:
as §1, §2

Experiment [10] has as its target T3, placental growth factor (PlGF)-2. Kind of experiment: ELISA; peptide coated (10 µg/mL, legend paragraph 53), GF in solution, BSA-coated wells as control [panel D]. The method, then:
as §1, §2

Experiment [11] deals with T10, recombinant human BMP-2 (human, UniProt P12643 283-396).
T10 construct: also called rhBMP-2
T10 sequence (P12643 283-396 limits assumed): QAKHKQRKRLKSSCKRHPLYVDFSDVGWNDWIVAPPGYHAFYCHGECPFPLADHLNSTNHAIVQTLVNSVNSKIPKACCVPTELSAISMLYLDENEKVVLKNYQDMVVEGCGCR
Description: ELISA, rhBMP-2 coated 50 nM, binder 50 nM.
Description: ELISA plates (NUNC MaxiSorp) were coated with 50 nM of recombinant human BMP-2 (CHO produced, R&D Systems, Minneapolis MN, USA) overnight at room temperature.

For experiment [12], the target named is T11, bovine type I collagen (bovine, UniProt P02453 178-1191; P02465 89-1102).
T11 construct: PureCol, Advanced BioMatrix; coated on the plate; also called collagen I; PureCol
T11 sequence (P02453 178-1191, chain 1 of 2): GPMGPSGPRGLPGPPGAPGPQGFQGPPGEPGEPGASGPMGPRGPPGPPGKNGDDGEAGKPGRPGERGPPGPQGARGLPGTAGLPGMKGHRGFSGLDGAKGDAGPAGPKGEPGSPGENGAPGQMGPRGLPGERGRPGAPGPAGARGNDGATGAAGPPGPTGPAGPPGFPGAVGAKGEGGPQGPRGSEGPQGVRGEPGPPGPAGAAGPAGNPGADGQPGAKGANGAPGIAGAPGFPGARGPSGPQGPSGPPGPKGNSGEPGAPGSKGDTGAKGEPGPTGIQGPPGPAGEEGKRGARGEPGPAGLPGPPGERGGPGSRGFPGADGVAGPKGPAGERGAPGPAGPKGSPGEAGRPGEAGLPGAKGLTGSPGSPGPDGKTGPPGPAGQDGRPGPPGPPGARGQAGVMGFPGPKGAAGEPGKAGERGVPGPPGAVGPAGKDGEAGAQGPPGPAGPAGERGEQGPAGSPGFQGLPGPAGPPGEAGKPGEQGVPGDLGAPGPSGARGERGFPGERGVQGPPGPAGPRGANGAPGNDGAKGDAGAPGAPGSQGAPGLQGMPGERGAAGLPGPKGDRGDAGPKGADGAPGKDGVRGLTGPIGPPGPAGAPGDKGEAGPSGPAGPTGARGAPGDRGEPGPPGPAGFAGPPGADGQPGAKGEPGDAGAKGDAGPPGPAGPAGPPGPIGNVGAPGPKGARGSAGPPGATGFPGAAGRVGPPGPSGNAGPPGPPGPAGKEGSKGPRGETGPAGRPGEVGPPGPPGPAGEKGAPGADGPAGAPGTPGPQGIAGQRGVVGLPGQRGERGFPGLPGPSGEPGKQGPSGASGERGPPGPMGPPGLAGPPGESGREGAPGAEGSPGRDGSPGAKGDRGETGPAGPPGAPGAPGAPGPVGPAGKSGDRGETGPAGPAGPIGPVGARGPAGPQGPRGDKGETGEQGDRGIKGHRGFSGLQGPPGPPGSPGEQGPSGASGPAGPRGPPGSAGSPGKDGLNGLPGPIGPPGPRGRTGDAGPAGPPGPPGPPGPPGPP
T11 sequence (P02465 89-1102, chain 2 of 2): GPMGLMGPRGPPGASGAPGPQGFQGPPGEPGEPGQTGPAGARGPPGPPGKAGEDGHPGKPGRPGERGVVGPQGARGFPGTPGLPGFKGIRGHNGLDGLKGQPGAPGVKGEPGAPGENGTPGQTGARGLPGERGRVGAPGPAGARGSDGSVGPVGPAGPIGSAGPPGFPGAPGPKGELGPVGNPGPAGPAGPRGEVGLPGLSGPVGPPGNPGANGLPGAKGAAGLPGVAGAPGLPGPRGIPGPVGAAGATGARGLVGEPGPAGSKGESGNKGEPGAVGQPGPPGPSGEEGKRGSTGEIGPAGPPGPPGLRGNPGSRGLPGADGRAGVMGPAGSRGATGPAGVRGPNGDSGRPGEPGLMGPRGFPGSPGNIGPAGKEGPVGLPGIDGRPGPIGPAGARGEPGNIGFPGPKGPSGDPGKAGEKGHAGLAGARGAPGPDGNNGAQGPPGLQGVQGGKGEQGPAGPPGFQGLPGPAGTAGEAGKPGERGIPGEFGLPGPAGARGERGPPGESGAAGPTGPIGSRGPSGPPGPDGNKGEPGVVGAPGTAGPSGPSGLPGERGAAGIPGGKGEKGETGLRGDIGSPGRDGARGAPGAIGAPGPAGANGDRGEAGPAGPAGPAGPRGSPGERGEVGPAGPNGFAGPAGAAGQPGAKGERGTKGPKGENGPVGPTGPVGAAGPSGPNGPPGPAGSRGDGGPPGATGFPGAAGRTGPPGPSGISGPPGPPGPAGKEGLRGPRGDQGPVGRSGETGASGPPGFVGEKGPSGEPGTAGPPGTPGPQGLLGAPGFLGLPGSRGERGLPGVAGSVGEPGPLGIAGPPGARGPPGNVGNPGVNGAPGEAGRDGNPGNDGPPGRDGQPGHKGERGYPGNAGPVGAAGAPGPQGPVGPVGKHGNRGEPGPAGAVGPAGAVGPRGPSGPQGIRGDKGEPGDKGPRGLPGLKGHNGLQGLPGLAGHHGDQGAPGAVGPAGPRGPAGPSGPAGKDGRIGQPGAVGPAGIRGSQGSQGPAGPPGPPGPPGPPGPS
Description: ELISA, collagen I coated, 0.01-30 nM binder. The method, then: ELISA plates (NUNC MaxiSorp, ThermoFisher Scientific) were coated overnight with 10 μg/mL of bovine type I collagen (PureCol, Advanced BioMatrix, San Diego CA, USA) at room temperature. The plate was further blocked using 2% bovine serum albumine (BSA) for 2 h at room temperature. […] The plate was washed thrice in PBST, and an horseradish peroxidase-conjugated anti-human Fab antibody (Jackson ImmunoResearch,) was used to detect bound FabCol variants. […] Absorbance at 450 nm was read using […], and corrected using the absorbance at 570 nm. Curve fits and dissociation constant KD were computed using Prism (GraphPad Software Inc., USA).

The target in experiment [13] is T2, placental growth factor (PlGF)-1. Description: ELISA; growth factors coated at 100 nM, FabCol variants at 100 nM in solution, HRP-anti-human Fab [panel F].
For experiment [14], the target named is T3, placental growth factor (PlGF)-2. Described as above.
Experiment [15] concerns the target T8, platelet-derived growth factor (PDGF)-BB. Described as above.
Experiment [16] addresses T4, vascular endothelial growth factor …. The experiment is described as above.

As usually defined, the Kd is the constant that tells how readily two partners part at equilibrium.

T8 sequence (P01127 82-190): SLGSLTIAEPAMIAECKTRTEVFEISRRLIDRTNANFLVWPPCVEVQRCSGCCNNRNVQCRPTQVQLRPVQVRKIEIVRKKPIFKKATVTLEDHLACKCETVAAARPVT
T6 sequence (P34741 19-144 limits assumed): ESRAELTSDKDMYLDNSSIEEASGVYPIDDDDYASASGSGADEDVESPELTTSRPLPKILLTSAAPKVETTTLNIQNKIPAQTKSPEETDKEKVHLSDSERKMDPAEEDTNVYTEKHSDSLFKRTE

B1: laminin α5 3300-3330 peptide (Linker) (peptide)
peptide: TPGLGPRGLQATARKASRRSRQPARHPACML
notes: Chemically synthesized (Genscript)
Turning to B1, the binding result in experiment [1] is “no binding (tested: 1 µg/mL)”; in experiment [2], “no binding (tested: 1 µg/mL)”; in experiment [3], “binds”; in experiment [4] it was “binds”; in experiment [5], “binds”; in [6], “binds”. Besides, the binding result in [7] is recorded as “binds”; in [8] it was “no binding (tested: 1 µg/mL PDGF-BB (single concentration))”; in [9], “binds”.

B2: laminin α3 3031-3043 peptide (LG4) (peptide)
peptide: KNSFMALYLSKGR
notes: as for B1
For B2, the binding result is “no binding (tested: 1 µg/mL)” in experiment [1]; “no binding (tested: 1 µg/mL)” in [2]; “binds” in [4]; “no binding (tested: 1 µg/mL PlGF-2 (single concentration))” in experiment [10]; “no binding (tested: 1 µg/mL PDGF-BB (single concentration))” in experiment [8].

B3: FabCol-LamLG4 recombinant fusion protein (Fab)
light: EIVLTQSPGTLSLSPGERATLSCRASQSVSSSYLAWYQQKPGQAPRLLIYGASSRATGIPDRFSGSGSGTDFTLTISRLEPEDFAVYYCQQAIGFPQTFGQGTKVEIKRTVAAPSVFIFPPSDEQLKSGTASVVCLLNNFYPREAKVQWKVDNALQSGNSQESVTEQDSKDSTYSLSSTLTLSKADYEKHKVYACEVTHQGLSSPVTKSFNRGEC
heavy: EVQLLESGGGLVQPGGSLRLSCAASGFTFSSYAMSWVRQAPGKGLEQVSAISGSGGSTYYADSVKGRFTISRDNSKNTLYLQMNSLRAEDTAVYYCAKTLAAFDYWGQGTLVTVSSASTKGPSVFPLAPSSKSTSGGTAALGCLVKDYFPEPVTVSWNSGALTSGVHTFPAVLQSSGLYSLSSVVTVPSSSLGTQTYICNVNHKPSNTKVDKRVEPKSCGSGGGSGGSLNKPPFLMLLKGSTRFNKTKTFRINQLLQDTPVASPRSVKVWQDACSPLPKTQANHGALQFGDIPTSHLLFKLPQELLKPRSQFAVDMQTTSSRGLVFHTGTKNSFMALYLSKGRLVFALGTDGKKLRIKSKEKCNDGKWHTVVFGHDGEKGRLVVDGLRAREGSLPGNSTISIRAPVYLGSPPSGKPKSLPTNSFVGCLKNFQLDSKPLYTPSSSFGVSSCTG
Regarding B3, the binding result in [11] is listed as “binds”; in experiment [13] it was “no binding (tested: 100 nM (single concentration))”; in experiment [14], “binds”; in experiment [15], “binds”; in experiment [16], “binds”. The molecule further gave a Kd in [12] of around 2.3 nM.

The values are drawn from patent publication US20240092867A1 (UNIVERSITY OF CHICAGO, published 2024).
